Reference: patent US5637463

Legend:
Assay in all cases: yeast two-hybrid with co-expressed Lck, LacZ reporter
[1] = molecular target: LexA-FcεRIγCT mutant with Tyr75 changed to phenylalanine, co-expressed with Lck (E. coli; human) (UniProt P0A7C2)
[2] = molecular target: LexA-βCT fusion protein (C-terminus of the rat β subunit of FcεRI), co-expressed with Lck (E. coli; rat)
[3] = molecular target: LexA-FcεRIγCT mutant with Tyr64 changed to phenylalanine, co-expressed with Lck (E. coli; human) (UniProt P0A7C2)
[4] = molecular target: LexA-NLS-FcεRIγ CT fusion protein, co-expressed with Lck (tyrosine-phosphorylated) (E. coli; human) (UniProt P0A7C2)
[5] = molecular target: LexA-FcεRIγCT double mutant with Tyr64 and Tyr75 changed to phenylalanine, co-expressed with Lck (E. coli; human) (UniProt P0A7C2)

| Substance | Galactosidase units (Galactosidase units) [1] | Galactosidase units (Galactosidase units) [2] | Galactosidase units (Galactosidase units) [3] | Galactosidase units (Galactosidase units) [4] | Galactosidase units (Galactosidase units) [5] |
| --- | --- | --- | --- | --- | --- |
| Vmw65-Lyn SH2 fusion protein (human Lyn amino acids 124-229) (from UniProt P06492) | 0 | 858 | 0 | 0 | 0 |
| Vmw65-SykN SH2 fusion protein (human Syk amino acids 11-111) (from UniProt P06492) | 0 | 0 | 0 | 0 | 0 |
| Vmw65-SykC SH2 fusion protein (human Syk amino acids 173-262) (from UniProt P06492) | 0 | 593 | 0 | 0 | 0 |
| Vmw65-Syk N+C SH2 fusion protein (human Syk amino acids 11-262) (from UniProt P06492) | 0 | 1070 | 0 | 559 | 0 |
